This is an account of results in the supplement of paper PMC10126150.

± gives the standard deviation of the averaged measurements.
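Note: ATP exposure 15 min at 22 °C before imaging.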

This series has as its system ATP. In words: switch fluorescence ratio, 500 uM ATP over buffer (Cy3 cluster intensity, sum of 5 cycles each) (fold (ratio)); higher = stronger signal-on switching upon ATP binding; sequences stand for … in TCGTCGGCAGCGTCAGATGTGTATAAGAGACAGTTTTTTTTTTTTTTTTTTTTTTTTT…TC. The settings on record: aptamer strand: ATP DNA aptamer (quencher-CACCTGGGGGAGTATTGCGGAGGAAGG + anchor), 100 nM annealed; ATP concentration: 500 uM. The method in brief: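 Imaging in selection buffer was followed by imaging after 15 min with 500 uM ATP at 22 °C, for Cy3-labelled switching-strand clusters annealed to 100 nM quencher-labelled ATP aptamer on a modified Illumina MiSeq flow-cell. Five of these buffer/ATP cycles ran, separated by NaOH stripping and re-annealing. The fluorescence ratio per cluster is summed target-cycle over summed buffer-cycle Cy3 intensity, averaged per switch-domain sequence; clusters outside 100-1000 RFU were removed.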
Consider TGTTACCGG, for which the switch fluorescence ratio came to 1.004 ± 0.0037.

TAATGAGTCA: the switch fluorescence ratio is 1 ± 0.081.

Turning to TCATGTATTG, the switch fluorescence ratio amounted to 1.01 ± 0.037.

Consider ATGGGCTGGG, for which the switch fluorescence ratio was found to be 0.997 ± 0.035.

For GACCGGTGGG, the switch fluorescence ratio was 0.9787 ± 0.0065.

CGGCACGTGG: the switch fluorescence ratio is 0.998 ± 0.021.

Regarding GTTAAGTTTT, the switch fluorescence ratio came to 0.985 ± 0.021.

For TGGACTAGGG, the switch fluorescence ratio is 0.975 ± 0.049.

With AGACGAGGCT, the switch fluorescence ratio turned out to be 1.01 ± 0.021.

For the sequence GCGTAAGGAG, the switch fluorescence ratio turned out to be 1.06 ± 0.096.

For TCGGGGGGAG, the switch fluorescence ratio worked out at 1.01 ± 0.018.

In the case of AATTTTTAGG, the switch fluorescence ratio came out at 0.98099 ± 2.5e-05.

Turning to TCTATTATAC, the switch fluorescence ratio amounted to 1.23 ± 0.13.

For GCGGTCAAAT, the switch fluorescence ratio was 1.005 ± 0.0018.

As for GGTAACAGTG, the switch fluorescence ratio is 1.07 ± 0.085.

As to TTCCCAGCAG, the switch fluorescence ratio was determined as 1.68 ± 0.65.

As to CTGGGACGAT, the switch fluorescence ratio stood at 0.998 ± 0.03.

For AGGGGGATCG, the switch fluorescence ratio is 0.9794 ± 0.0018.

Regarding ATTAGAATTA, the switch fluorescence ratio is 0.982 ± 0.062.

With CTTATAGCAT, the switch fluorescence ratio was determined as 1.096 ± 0.0085.

For TAGGGTCATT, the switch fluorescence ratio was 0.999 ± 0.029.

For the sequence TTTTAATTCC, the switch fluorescence ratio is 1.02 ± 0.038.

As for TTTTGATTAA, the switch fluorescence ratio turned out to be 1.02 ± 0.041.

Consider CCTGGCATTG, for which the switch fluorescence ratio amounted to 1.18 ± 0.09.

Take GATGTAAGGT: the switch fluorescence ratio was determined as 1.02 ± 0.029.

As for CGATAGGGGT, the switch fluorescence ratio amounted to 1.05 ± 0.074.

As to TTTCTAGCGG, the switch fluorescence ratio came out at 1.01 ± 0.054.

As to GCCGGTTATC, the switch fluorescence ratio was 1 ± 0.017.

For GCCGATTATA, the switch fluorescence ratio is 1 ± 0.00097.

ATATTGATTC: the switch fluorescence ratio came out at 1.01 ± 0.027.

On to AAATTCGGGC, for which the switch fluorescence ratio stood at 0.973 ± 0.014.

As for AGGAGTGGAG, the switch fluorescence ratio was determined as 0.996 ± 0.013.

Take TAATAGTTCT: the switch fluorescence ratio worked out at 1.01 ± 0.026.

For CGCGTTCATT, the switch fluorescence ratio stood at 0.972 ± 0.038.

For CCTAGGGTGT, the switch fluorescence ratio is 2.12 ± 0.32.

Take TAGAAGGAAT: the switch fluorescence ratio turned out to be 1.05 ± 0.044.

For the sequence TGCTAGGGTA, the switch fluorescence ratio worked out at 0.985 ± 0.012.

Consider GAACGGAGCT, for which the switch fluorescence ratio amounted to 1.09 ± 0.052.

Take TTTTTATAGT: the switch fluorescence ratio is 1.02 ± 0.022.

On to CAGTAAGATC, for which the switch fluorescence ratio stood at 1.026 ± 0.0056.

Regarding GGTTCGTCGT, the switch fluorescence ratio stood at 0.987 ± 0.02.

In the case of AACATTATTT, the switch fluorescence ratio stood at 1.022 ± 0.0014.

As for AAAAAACGTA, the switch fluorescence ratio is 1.08 ± 0.1.

For GAAATATCAG, the switch fluorescence ratio came out at 1.01 ± 0.029.

For ATCGGGGGA, the switch fluorescence ratio is 1.02 ± 0.051.

On to AAGAGCGAAG, for which the switch fluorescence ratio stood at 1.01 ± 0.014.

Turning to TCGTTTTGCC, the switch fluorescence ratio turned out to be 0.956 ± 0.02.

TGGGGGCTTG: the switch fluorescence ratio is 0.993 ± 0.024.

For the sequence GGACTTGTGA, the switch fluorescence ratio stood at 0.997 ± 0.018.

On to GATATGAGCG, for which the switch fluorescence ratio was 1.002 ± 0.0018.

As to TTACAACGTA, the switch fluorescence ratio turned out to be 1 ± 0.013.

Consider TAATTGTGCT, for which the switch fluorescence ratio is 0.979 ± 0.026.

Regarding ATTTTTAGTG, the switch fluorescence ratio was 1.008 ± 0.0068.

Turning to TTTGAATTGG, the switch fluorescence ratio was found to be 0.996 ± 0.017.

With AATTTGGAAG, the switch fluorescence ratio was 0.981 ± 0.027.

As to TGCATGGAGC, the switch fluorescence ratio turned out to be 0.9946 ± 0.0042.

In the case of TAGGAGTAAT, the switch fluorescence ratio came out at 1.012 ± 0.0047.

Regarding GTGGGAGTTG, the switch fluorescence ratio amounted to 0.969 ± 0.04.

Regarding CCTCTGGAGG, the switch fluorescence ratio came to 1.09 ± 0.013.

Consider GATTTGAAAC, for which the switch fluorescence ratio is 1 ± 0.031.

As for TTTTACGCCG, the switch fluorescence ratio is 1.09 ± 0.041.

Consider ATCAGCAGGC, for which the switch fluorescence ratio worked out at 1.6 ± 0.045.

As to GGAACTCGCT, the switch fluorescence ratio stood at 1.02 ± 0.11.

In the case of TAAATGGTCC, the switch fluorescence ratio is 1.073 ± 0.0063.

With GGAAACAGGA, the switch fluorescence ratio came out at 1.02 ± 0.05.

With CGGGATCCAG, the switch fluorescence ratio is 1.01 ± 0.0094.
